For this test, the target named is recombinant influenza HA3-protein (from H3N2, Wyoming, March 2003, Sino Biological Inc.) (influenza H3N2, Wyoming, March 2003). Description: SPR imaging (IBIS MX96), antibody captured on anti-human-IgG chip, HA3 injected at 1 µg/ml, global 1:1 fit.

Experimental findings from patent publication US20130331552A1 are described below.

A word on the Kd: it is the equilibrium constant for the complex coming apart. As usually defined, the koff is the first-order rate constant of dissociation. As usually defined, the kon is the second-order rate constant of association.

B1: AT10-004 (antibody, V domains shown)
VH: RASQSVSRYLA
VL: RASQSVSRYLA
Regarding B1, the Kd is 0.07 nM, the koff was found to be 1e-06 s⁻¹ and the kon was 14000 M⁻¹ s⁻¹.
